Assay [1] concerns the target T1, full-length beta-Catenin (Uniprot ID P35222) (Homo sapiens (Human), UniProt P35222 2-781).
T1 construct: the AlphaScreen assay uses a Histidine (Nickel Chelate) detection kit, so a His tag is likely there; also called B-Catenin; bCat
T1 sequence: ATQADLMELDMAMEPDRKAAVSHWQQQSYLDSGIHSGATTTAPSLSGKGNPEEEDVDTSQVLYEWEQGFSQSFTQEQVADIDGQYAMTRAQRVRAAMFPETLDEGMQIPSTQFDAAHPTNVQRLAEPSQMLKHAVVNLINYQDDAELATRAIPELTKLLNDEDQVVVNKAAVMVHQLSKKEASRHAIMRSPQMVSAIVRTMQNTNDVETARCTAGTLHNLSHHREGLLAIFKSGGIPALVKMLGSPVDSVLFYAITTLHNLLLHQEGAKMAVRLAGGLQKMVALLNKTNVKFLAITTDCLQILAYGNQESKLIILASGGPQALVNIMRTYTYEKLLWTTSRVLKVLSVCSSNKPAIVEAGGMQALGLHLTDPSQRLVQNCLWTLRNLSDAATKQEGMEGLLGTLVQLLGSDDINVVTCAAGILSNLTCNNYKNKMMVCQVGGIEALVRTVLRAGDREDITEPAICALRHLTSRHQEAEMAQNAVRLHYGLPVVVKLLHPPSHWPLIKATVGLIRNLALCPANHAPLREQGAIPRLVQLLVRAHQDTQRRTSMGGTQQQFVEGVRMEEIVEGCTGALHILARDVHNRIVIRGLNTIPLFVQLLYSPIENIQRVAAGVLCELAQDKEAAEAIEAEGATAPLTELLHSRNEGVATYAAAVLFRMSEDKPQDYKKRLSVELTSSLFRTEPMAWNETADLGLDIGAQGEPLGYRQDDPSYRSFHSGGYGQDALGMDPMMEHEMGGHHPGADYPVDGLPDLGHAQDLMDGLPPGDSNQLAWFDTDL
Briefly: AlphaScreen competition; full-length beta-catenin with biotin-TCF4(10-53) probe as competitor. On the procedure: Equal volume of the titrated peptide was added to the plate and incubated for 15 minutes at 20° C. Then 4 uL of donor and 4 uL acceptor beads at 10 ug/mL were added to the plate, for a 16 uL reaction pool and protected from light for 60 minutes at 20° C. prior to read. Reads were performed on a CLARIOstar plate reader (BMG Labtech) in duplicate, and data were fitted to a 1:1 binding model with hill slope using an in-house script. All provided concentrations are final concentrations.
On the technique in general: Bead proximity is the source of the signal in Alpha formats.

Assay [2] concerns the target T1, full-length beta-Catenin (Uniprot ID …). Briefly: fluorescence polarization competition; full-length beta-catenin with 5FAM-TCF4(10-53) probe as competitor. The method, then: (§1) The plate was incubated protected from light for 60 minutes at 20° C. prior to read. Reads were performed on a CLARIOstar plate reader (BMG Labtech) in duplicate, and data were fitted to a 1:1 binding model with hill slope using an in-house script. All provided concentrations are final concentrations.
A general note: Fluorescence polarisation rises when a labelled molecule tumbles more slowly, as on binding a larger partner.

The next assay has as its target T2, B-cat-Halo (UniProt P35222 1-781).
T2 sequence (looked up): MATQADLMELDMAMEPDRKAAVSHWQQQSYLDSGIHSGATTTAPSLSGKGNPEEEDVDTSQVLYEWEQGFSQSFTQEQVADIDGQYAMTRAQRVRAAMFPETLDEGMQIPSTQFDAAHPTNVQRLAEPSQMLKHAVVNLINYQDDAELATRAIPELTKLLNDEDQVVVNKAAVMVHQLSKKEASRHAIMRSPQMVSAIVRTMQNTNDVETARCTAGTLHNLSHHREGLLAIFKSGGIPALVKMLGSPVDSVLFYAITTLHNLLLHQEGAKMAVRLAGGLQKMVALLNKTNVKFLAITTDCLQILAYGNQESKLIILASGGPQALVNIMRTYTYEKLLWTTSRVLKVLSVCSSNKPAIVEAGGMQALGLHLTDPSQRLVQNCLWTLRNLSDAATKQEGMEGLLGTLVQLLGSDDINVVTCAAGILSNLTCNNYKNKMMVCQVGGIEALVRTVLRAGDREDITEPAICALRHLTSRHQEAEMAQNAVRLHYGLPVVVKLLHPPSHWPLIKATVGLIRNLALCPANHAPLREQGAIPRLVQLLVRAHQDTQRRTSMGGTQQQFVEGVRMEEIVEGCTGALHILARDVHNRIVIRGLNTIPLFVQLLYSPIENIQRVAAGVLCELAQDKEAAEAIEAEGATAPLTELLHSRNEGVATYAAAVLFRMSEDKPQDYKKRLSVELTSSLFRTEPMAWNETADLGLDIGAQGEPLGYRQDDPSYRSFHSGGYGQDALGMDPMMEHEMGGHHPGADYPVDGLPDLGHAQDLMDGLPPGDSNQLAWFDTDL
In words: cell-based or functional assay.

Assay [3] concerns the target T3, full-length beta-Catenin (Uniprot ID P35222) (Homo sapiens (Human), UniProt P35222 2-781).
T3 construct: No tag is stated for the FP assay; also called bCat; B-Catenin
T3 sequence: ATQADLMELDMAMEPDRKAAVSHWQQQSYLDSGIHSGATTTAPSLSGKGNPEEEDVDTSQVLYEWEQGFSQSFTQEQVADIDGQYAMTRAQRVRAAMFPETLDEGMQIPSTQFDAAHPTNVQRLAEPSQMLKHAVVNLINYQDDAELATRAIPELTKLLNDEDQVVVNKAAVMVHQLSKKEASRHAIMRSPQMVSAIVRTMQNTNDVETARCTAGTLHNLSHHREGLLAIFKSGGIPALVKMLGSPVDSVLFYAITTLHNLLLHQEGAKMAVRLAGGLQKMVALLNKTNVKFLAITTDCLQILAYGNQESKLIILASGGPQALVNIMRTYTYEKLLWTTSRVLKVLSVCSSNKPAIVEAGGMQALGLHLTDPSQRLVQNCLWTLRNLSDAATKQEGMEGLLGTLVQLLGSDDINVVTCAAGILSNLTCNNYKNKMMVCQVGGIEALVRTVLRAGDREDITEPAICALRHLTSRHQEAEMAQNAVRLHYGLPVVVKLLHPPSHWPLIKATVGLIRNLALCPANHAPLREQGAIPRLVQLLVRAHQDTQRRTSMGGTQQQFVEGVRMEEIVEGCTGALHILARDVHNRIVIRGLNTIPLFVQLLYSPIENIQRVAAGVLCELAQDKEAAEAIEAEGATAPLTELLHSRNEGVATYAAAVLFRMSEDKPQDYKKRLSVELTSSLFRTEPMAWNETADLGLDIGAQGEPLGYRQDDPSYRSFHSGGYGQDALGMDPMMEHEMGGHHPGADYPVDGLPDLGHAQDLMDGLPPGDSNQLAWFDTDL
In words: fluorescence polarization competition; full-length beta-catenin with 5FAM-TCF4(10-53) probe as competitor. On the procedure: as §1

Starred links: 1 amine or outer side, 2 acyl side, 3 side chain; linkers in the order of their positions; H or OH if unused. Positions of bridges follow the written chain, without caps; N, C: chain ends. Non-standard residues stand in square brackets, D forms with d. Primed or numbered codes have the meaning given here. B5(29) = 2-amino-2-(pent-4-en-1-yl)hept-6-enoic acid (2,2-bis(4-pentenyl)glycine), stitching residue bearing both staples, C=CCCCC(CCCC=C)(N[*:1])C(=O)[*:2]; PyrS2″ = (S)-3-amino-1-((pent-4-en-1-yloxy)carbonyl)pyrrolidine-3-carboxylic acid (stapling residue), C=CCCCOC(=O)N1CC[C@@](N[*:1])(C(=O)[*:2])C1; B5(16) = 2-amino-2-(pent-4-en-1-yl)hept-6-enoic acid = 2,2-bis(4-pentenyl)glycine (stitching residue), C=CCCCC(CCCC=C)(N[*:1])C(=O)[*:2]; B5(17) = 2,2-bis(4-pentenyl)glycine = 2-amino-2-(pent-4-en-1-yl)hept-6-enoic acid, stitching residue, C=CCCCC(CCCC=C)(N[*:1])C(=O)[*:2]; B5(4) = 2,2-bis(4-pentenyl)glycine = 2-amino-2-(pent-4-en-1-yl)hept-6-enoic acid (stitching residue), C=CCCCC(CCCC=C)(N[*:1])C(=O)[*:2]; B5(6) = 2-amino-2-(pent-4-en-1-yl)hept-6-enoic acid (bis(4-pentenyl)glycine), stitching residue, C=CCCCC(CCCC=C)(N[*:1])C(=O)[*:2]; RdN = (R)-4-(((allyloxy)carbonyl)(methyl)amino)-2-amino-2-methylbutanoic acid, C=CCOC(=O)N(C)CC[C@@](C)(N[*:1])C(=O)[*:2]; B5(19) = 2-amino-2-(pent-4-en-1-yl)hept-6-enoic acid (bis(4-pentenyl)glycine), C=CCCCC(CCCC=C)(N[*:1])C(=O)[*:2]; B5(3) = 2,2-bis(4-pentenyl)glycine (stitching residue), C=CCCCC(CCCC=C)(N[*:1])C(=O)[*:2]; Qui = (S)-2-amino-3-(quinolin-2-yl)propanoic acid, O=C([C@H](Cc1ccc2ccccc2n1)N[*:1])[*:2]; Trp(7-F) = N[C@@H](Cc1c[nH]c2c(F)cccc12)C(=O)O; S7 = C[C@@](CCCCCC=[*:3])(N[*:1])C(=O)[*:2]; 2Nal = N[C@@H](Cc1ccc2ccccc2c1)C(=O)O; Bta = N[C@@H](Cc1csc2ccccc12)C(=O)O; αAllylPro = C=CC[C@@]1(C(=O)O)CCCN1; tBuAla = CC(C)(C)C[C@H](N)C(=O)O; 3Thi = N[C@@H](Cc1ccsc1)C(=O)O; Cit = NC(=O)NCCC[C@H](N)C(=O)O; S8 = C=CCCCCCC[C@](C)(N)C(=O)O; hSer = N[C@@H](CCO)C(=O)O; Aib = CC(C)(N)C(=O)O

Take Ac-[αAllylPro]DA[B5(19)]DEAAFV[S8]F[2Nal]Q-NH2 (staple 1-4, 4-11, stapled peptide composition) [I-140]: the EC50 in assay [1] was 934 nM; in assay [2], 2270 nM.

On to Ac-[αAllylPro]DA[B5(16)]DEAAFV[S8]F[Trp(7-F)]Q-NH2 (staple 1-4, 4-11, stapled peptide composition) [I-166], for which the EC50 in assay [1] was 86.5 nM; in assay [2] it was 2160 nM.

For Ac-[αAllylPro]DA[B5(4)]DEAAFV[S8]F[Bta]Q-NH2 (staple 1-4, 4-11, stapled peptide composition) [I-144], the EC50 was found to be 66 nM in assay [1] and 146 nM in assay [2].

For the molecule Ac-[αAllylPro]DA[B5(4)]DEAAFV[S8]FWA-NH2 (staple 1-4, 4-11, stapled (stitched) peptide composition) [I-135], the EC50 in assay [1] was found to be 278 nM; in assay [2] it was 1870 nM.

On to Ac-[αAllylPro]D[tBuAla][B5(3)]DNAAFN[PyrS2″][3Thi][Bta]H-NH2 (staple 1-4, 4-11) [I-837], for which the “NanoBRET Abs IC50” value with B-cat-Halo was found to be 23800 nM.

Regarding Ac-[αAllylPro]D[tBuAla][B5(3)]DQAAFN[PyrS2″][3Thi][Bta]Q-NH2 (staple 1-4, 4-11) [I-838], the “NanoBRET Abs IC50” value with B-cat-Halo was found to be 17400 nM.

As to Ac-[αAllylPro]D[tBuAla][B5(3)]D[Cit]AAFN[PyrS2″][3Thi][Bta]H-NH2 (staple 1-4, 4-11) [I-841], the “NanoBRET Abs IC50” value with B-cat-Halo was 34400 nM.

Take Ac-[Aib]DI[RdN]DEAAFQ[S7]FW-NH2 (staple 4-11, stapled peptide composition) [I-147]: the EC50 in assay [1] was found to be 328 nM; in assay [2], 1640 nM.

With Ac-[αAllylPro]DA[B5(4)]DEAAFV[S8]F[Qui]Q-NH2 (staple 1-4, 4-11, stapled peptide composition) [I-143], the EC50 in assay [1] turned out to be 733 nM; in assay [2], 2270 nM.

Consider Ac-[αAllylPro]D[tBuAla][B5(3)]DYAAFN[PyrS2″][3Thi][Bta]Q-NH2 (staple 1-4, 4-11) [I-842], for which the “NanoBRET Abs IC50” value with B-cat-Halo is 47900 nM.

In assay [3], Ac-[αAllylPro]DT[B5(29)]DEAAFQ[S8]F[Bta]Q-NH2 (staple 1-4, 4-11, Stapled (stitched) peptide composition) [I-477] returned an IC50 of 119 nM.

B1: I-492 (peptide)
peptide: Ac-[αAllylPro]DA[B5(17)]DEAAFQ[S8]F[Bta][hSer]-NH2
modifications: staple 1-4, 4-11; also: later eluting HPLC peak, E/Z not assigned
notes: Stapled peptide; this is the later eluting HPLC peak (staple isomer composition)
In assay [3], B1 displayed an IC50 of 53 nM.

B2: I-498 (peptide)
peptide: Ac-[αAllylPro]DA[B5(6)][hSer]EAAFQ[S8]F[Bta]Q-NH2
modifications: staple 1-4, 4-11; not fully specified; printed as Ac-PL3-Asp-Ala-B5-Hse-Glu-Ala-Ala-Phe-Gln-S8-Phe-BztA-Gln-NH2
notes: Stapled peptide; this is the third eluting HPLC peak (staple isomer composition)
B2 displayed an IC50 in assay [3] of 5000 nM.

B3: I-493 (peptide)
peptide: XDAXDEAAFQXFXS
modifications: not fully specified; Ac-PL3-Asp-Ala-B5-Asp-Glu-Ala-Ala-Phe-Gln-S8-Phe-BztA-DSer-NH2; N-terminal acetyl, C-terminal amide; PL3(1)-B5(4) and B5(4)-S8(11) stapled by olefin metathesis; BztA at 13; D-Ser at 14
notes: Stapled (stitched) peptide composition
B3 showed an IC50 in assay [3] of 88 nM.

Usually EC50 stands for the concentration that produces a half-maximal response. For orientation: IC50 means the midpoint of a concentration-inhibition curve.
